From patent US20090271892A1, “LYSOPHOSPHATIDIC ACID ACYLTRANSFERASE GENES AND USES THEREOF” (priority 2006, published 2009)

B1: Brassica napus LPAAT (BnLPAAT, RAT1), SEQ ID No 5 (Brassica napus) (protein)
chain: MAMAAAVIVPLGILFFISGLVVNLLQAVCYVLVRPLSKNTYRKINRVVAETLWLELVWIVDWWAGVKIQVFADDETFNRMGKEHALVVCNHRSDIDWLVGWILAQRSGCLGSALAVMKKSSKFLPVIGWSMWFSEYLFLERNWAKDESTLKSGLQRLNDFPRPFWLALFVEGTRFTEAKLKAAQEYAASSELPVPRNVLIPRTKGFVSAVSNMRSFVPAIYDMTVAIPKTSPPPTMLRLFKGQPSVVHVHIKCHSMKDLPESEDEIAQWCRDQFVTKDALLDKHIAADTFAGQKEQNIGRPIKSLAVVLSWACLLTLGAMKFLHWSNLFSSWKGIALSALGLGIITLCMQILIRSSQSERSTPAKVAPAKPKDNHQSGPSSQTEVEEKQK

Assays:
[1] = target: T1, Litchi sinensis LPAAT (LsLPAAT, pEW108), mutant of SEQ ID No 2 in the last C-terminal amino acids, SEQ ID No 1 (Litchi chinensis, UniProt A0A346D9Z1); assay: LPAAT assay, kinetic parameters with C18:1-CoA, E. coli JC201 microsomes; format: biochemical; settings: C18:1-CoA 0-50 μM, 10 min, 30° C., pH7.5, N = 4
T1 construct: araBAD promoter, E. coli JC201 microsomes
T1 sequence (A0A346D9Z1 entry or part of it, change not shown): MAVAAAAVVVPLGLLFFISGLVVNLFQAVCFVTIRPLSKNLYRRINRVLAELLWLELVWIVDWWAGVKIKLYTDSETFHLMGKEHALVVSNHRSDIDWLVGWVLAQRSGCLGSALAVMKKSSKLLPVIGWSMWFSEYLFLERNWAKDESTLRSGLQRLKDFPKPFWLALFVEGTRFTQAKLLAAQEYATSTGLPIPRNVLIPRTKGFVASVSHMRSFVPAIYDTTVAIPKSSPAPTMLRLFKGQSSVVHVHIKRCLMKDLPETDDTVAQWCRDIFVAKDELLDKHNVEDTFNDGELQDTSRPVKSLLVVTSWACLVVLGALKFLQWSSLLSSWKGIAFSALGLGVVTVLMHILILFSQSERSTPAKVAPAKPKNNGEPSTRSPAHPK
Description: (§1) FIG. 1: Kinetics of phosphatidic acid synthesis using ^14C-C18:1-CoA on ^3H-LPA as substrates and Brassica napus (SEQ ID No 5) and Litchi microsomal (SEQ ID NO 1) LPAATs as enzymes. Duplicate measurements for one experiment are shown.
The inventors have identified one putative Lysophosphatidic Acid-Acyl Transferase from Lychee (SEQ ID No 2). They also have obtained a mutated protein derived from this protein, which is depicted as SEQ ID No 1.
Plasmids pEW108 and 117 comprising genes coding for SEQ ID No 1 and SEQ ID No 2 respectively under the control of the araBAD promoter (Guzman, L-M. et al. (1995) J Bacteriology 177: 4121-4130) were prepared and used to transform and complement an E. coli strain. The araBAD promoter is induced by arabinose, repressed by glucose and is used in the art to express polynucleotides in a controlled manner.
The following experiments were performed with the Escherichia coli JC201 mutant strain, which is temperature conditional in endogenous LPAAT activity and able to grow at 30° C. but not at 44° C. (genotype plsC, described in Coleman, 1990 J. Biol. Chem., 265 (28), 17215-21.). These bacteria were kept at −80° C. as 1 ml glycerol stocks. […] Optical density was measured at 600 nm and each flask was then cultivated for 6 hours at 30 and 44° C. respectively in order to check by optical density measurement that bacterial growth occurs at 30° C. but not at 44° C. […]

[2] = substrate: CCCCCCCC/C=C\CCCCCCCC(=O)SCCNC(=O)CCNC(=O)[C@H](O)C(C)(C)COP(=O)(O)OP(=O)(O)OC[C@H]1O[C@@H](n2cnc3c(N)ncnc32)[C@H](O)[C@@H]1OP(=O)(O)O; assay: as above; format: biochemical, Brassica napus; settings: other: C18:1-CoA 0-50 μM, 10 min, 30° C., pH7.5, N = 3, pH 7.5
Method: as §1
The following experiments were performed with the Escherichia coli JC201 mutant strain, which is temperature conditional in endogenous LPAAT activity and able to grow at 30° C. but not at 44° C. (genotype plsC, described in Coleman, 1990 J. Biol. Chem., 265 (28), 17215-21.). These bacteria were kept at −80° C. as 1 ml glycerol stocks. For E. coli JC201 transformation, one glycerol stock was diluted in 15 mL of Luria-Bertani (ref. L3022, Sigma) liquid medium and cultivated overnight at 30° C. Then, 1 mL was used to inoculate flasks containing 15 mL of fresh liquid LB medium. Optical density was measured at 600 nm and each flask was then cultivated for 6 hours at 30 and 44° C. respectively in order to check by optical density measurement that bacterial growth occurs at 30° C. but not at 44° C. One of the cultures obtained at 30° C. was then centrifuged at 4500 g/4° C. for 10 min. Supernatant was discarded and the pellet was kept on ice for 2 hours. The pellet was washed three time with 15 mL sterile distilled water and then twice with 15 mL distilled sterile water containing 10% (weight/volume) glycerol (centrifugation condition: 4500 g/4° C./10 min). […]

[3] = Competitive LPAAT assay using C18:1-CoA and C19CA-CoA; format: biochemical
Method: The ^3H-oleoyl-lysophosphatidic acid (^3HLPA, ref. NET1100; 600 μM, 28 mCi mmol^−1) and ^14C-Oleoyl-CoA (^14CC18:1-CoA, ref. NET651A; 300 μM, 11 mCi mmol^−1) radio-labeled substrates were purchased from Perkin Elmer. Assays were carried out in a final volume of 300 μl and contained Tris/HCl (100 mM, pH7.5), Triton X-100 (0.01% w/v), BSA (1 mg/ml), ascorbic acid (10 mM), EDTA (2 mM), 100 μl LPA and 50 μl acyl-CoA. The reaction was started by the addition of 30 μl of microsomes, and conducted in a glass vial placed in a Eppendorf Thermomixer-compact apparatus (30° C., 350 rpm). The reaction was stopped after incubation (from 0 to 120 min) by addition of 720 μl of chloroform/methanol (1:1). To separate the phases, 280 μl of 1M KCl in 0.2 M H3PO4 were added and the whole mixture was vortexed for 10 s before centrifugation at 1300 g, 5 min at room temperature. The upper aqueous phase was discarded and 2×25 μl of the remaining organic phase was spotted on to silica gel 60 ÅF254 TLC plates (ref. 1.05715, Merck) and developed in chloroform/methanol/NH4OH/water (65:25:0.9:3). The phosphatidic acid spot was visualized by iodine revelation and collected for scintillation counting.
(§2) Radioactivity measurement was performed in 10 mL Ultimagold (ref. 6013329, Perkin Elmer) using a liquid scintillation analyzer (Tri-Carb 2100TR, Packard) for determination of ^3H and ^14C separately.
[…] For all experimental conditions, data are derived from three experiments with 4 replicates each.
LPAAT selectivity for the two substrates is calculated as follows:
Selectivity for C18:1-CoA: S^C18:1-CoA=^14C/^3H
Selectivity for C19CA-CoA: S^C19:1CA-CoA=(^3H—^14C)/^3H
in which, ^3H and ^14C are the molar quantity of produced PA and the molar quantity of ^14C18:1 incorporated into this PA. These molar quantities are calculated from the corresponding ^3H and ^14C radioactivity levels measured in the phosphatidic acid spots scraped from TLC plates. Selectivity is expressed as the fraction of the specific fatty acid incorporated out of the total incorporated at the sn-2 position.

[4] = LPAAT assay with C18:1-CoA as substrate (microsomes of transformed E. coli); format: biochemical; settings: expressed in transformed E. coli mutant strains; FIG. 1
Method: The ^3H-oleoyl-lysophosphatidic acid (^3HLPA, ref. NET1100; 600 μM, 28 mCi mmol^−1) and ^14C-Oleoyl-CoA (^14CC18:1-CoA, ref. NET651A; 300 μM, 11 mCi mmol^−1) radio-labeled substrates were purchased from Perkin Elmer. Assays were carried out in a final volume of 300 μl and contained Tris/HCl (100 mM, pH7.5), Triton X-100 (0.01% w/v), BSA (1 mg/ml), ascorbic acid (10 mM), EDTA (2 mM), 100 μl LPA and 50 μl acyl-CoA. The reaction was started by the addition of 30 μl of microsomes, and conducted in a glass vial placed in a Eppendorf Thermomixer-compact apparatus (30° C., 350 rpm). The reaction was stopped after incubation (from 0 to 120 min) by addition of 720 μl of chloroform/methanol (1:1). […]
as §2
A first LPAAT assay was performed as described above in order to determine optimal LPAAT activity using ^14CC18:1-CoA as substrate: • Effect of incubation time was tested for 0, 1, 3, 5, 10, 30, 60 and 120 min with 50 μM ^14CC18:1-CoA at 30° C. • In order to determine LPAAT kinetic parameters, the effect of C18:1-CoA concentration was tested as described above. […] For all experimental conditions, the mean of 2 values is calculated. […]

Molecule | Km [1] [µM] | Vmax ([1]; apparent Vmax, per mg total protein) | Km [2] [µM] | Vmax [2] [µmol/min/mg] | use of C19CA-CoA as substrate ([3]; competitive assays using C19CA-CoA and C18:1-CoA) | selectivity for C19CA-CoA (in words) ([3]; very little incorporation of 19:0CA up to 50 μM) | esterification of 14C-C18:1-CoA on 3H-LPA (presence of PA in lipid fraction) [4]
CCCCCCCC/C=C\CCCCCCCC(=O)SCCNC(=O)CCNC(=O)[C@H](O)C(C)(C)COP(=O)(O)OP(=O)(O)OC[C@H]1O[C@@H](n2cnc3c(N)ncnc32)[C@H](O)[C@@H]1OP(=O)(O)O [C18:1-CoA, Oleoyl-CoA] | 7.3 ± 4.1 | 1557 ± 616 pmol · mg prot^−1 · min^−1 | – | – | – | – | –
B1 | – | – | 10.6 ± 6.7 | 0.0056 | can use C19CA-CoA as substrate | very low selectivity | fully functional
